Test results published in paper PMC6946597.
Read-outs that look alike come from different tables or passages of the source.

Legend:
[1] = molecular target: human COA6 isoform 3 (human); test: SEC
[2] = molecular target: human COA6 isoform 3 (human); test: SEC; remark: listed apart in the source

stoichiometry N [1]: 2 | stoichiometry N [2]: 2
Substance: human COA6 isoform 3 (natural protein)
